{"source": "paper PMC6923591", "key": {"[1]": {"target": "Ptpn6 wt C-SH2 domain (recombinant C-terminal SH2 domain of Ptpn6/SHP-1)", "experiment": "ITC"}, "[2]": {"target": "Ptpn6 Y208N C-SH2 domain (recombinant C-terminal SH2 domain of Ptpn6/SHP-1 with Y208N)", "experiment": "ITC"}}, "data": [{"substance": "FcγR2b phosphopeptide", "values": [{"measurement": "Kd", "setting": "[1]", "result": 20.1, "unit": "µM"}, {"measurement": "Kd", "setting": "[2]", "result": 10.4, "unit": "µM"}]}]}
